Key:
[1] = biological target: pidd1_human PIDD1 (UniProt Q9HB75)
[2] = biological target: casp2_rat Casp2 (UniProt P55215)
Sequence of casp2_rat Casp2 (P55215 whole entry): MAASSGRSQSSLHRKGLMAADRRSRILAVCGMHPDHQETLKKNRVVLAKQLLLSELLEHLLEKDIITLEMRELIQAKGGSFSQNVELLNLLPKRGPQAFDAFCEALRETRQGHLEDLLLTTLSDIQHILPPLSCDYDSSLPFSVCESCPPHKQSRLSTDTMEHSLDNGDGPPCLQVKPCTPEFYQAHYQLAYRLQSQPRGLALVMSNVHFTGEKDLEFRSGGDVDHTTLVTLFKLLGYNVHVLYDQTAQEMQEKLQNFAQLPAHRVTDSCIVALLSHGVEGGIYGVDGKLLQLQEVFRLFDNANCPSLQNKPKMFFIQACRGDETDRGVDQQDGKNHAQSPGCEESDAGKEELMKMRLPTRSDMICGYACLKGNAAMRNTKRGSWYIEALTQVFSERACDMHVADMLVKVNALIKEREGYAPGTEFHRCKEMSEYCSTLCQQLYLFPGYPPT

Sequence of pidd1_human PIDD1 (Q9HB75 whole entry): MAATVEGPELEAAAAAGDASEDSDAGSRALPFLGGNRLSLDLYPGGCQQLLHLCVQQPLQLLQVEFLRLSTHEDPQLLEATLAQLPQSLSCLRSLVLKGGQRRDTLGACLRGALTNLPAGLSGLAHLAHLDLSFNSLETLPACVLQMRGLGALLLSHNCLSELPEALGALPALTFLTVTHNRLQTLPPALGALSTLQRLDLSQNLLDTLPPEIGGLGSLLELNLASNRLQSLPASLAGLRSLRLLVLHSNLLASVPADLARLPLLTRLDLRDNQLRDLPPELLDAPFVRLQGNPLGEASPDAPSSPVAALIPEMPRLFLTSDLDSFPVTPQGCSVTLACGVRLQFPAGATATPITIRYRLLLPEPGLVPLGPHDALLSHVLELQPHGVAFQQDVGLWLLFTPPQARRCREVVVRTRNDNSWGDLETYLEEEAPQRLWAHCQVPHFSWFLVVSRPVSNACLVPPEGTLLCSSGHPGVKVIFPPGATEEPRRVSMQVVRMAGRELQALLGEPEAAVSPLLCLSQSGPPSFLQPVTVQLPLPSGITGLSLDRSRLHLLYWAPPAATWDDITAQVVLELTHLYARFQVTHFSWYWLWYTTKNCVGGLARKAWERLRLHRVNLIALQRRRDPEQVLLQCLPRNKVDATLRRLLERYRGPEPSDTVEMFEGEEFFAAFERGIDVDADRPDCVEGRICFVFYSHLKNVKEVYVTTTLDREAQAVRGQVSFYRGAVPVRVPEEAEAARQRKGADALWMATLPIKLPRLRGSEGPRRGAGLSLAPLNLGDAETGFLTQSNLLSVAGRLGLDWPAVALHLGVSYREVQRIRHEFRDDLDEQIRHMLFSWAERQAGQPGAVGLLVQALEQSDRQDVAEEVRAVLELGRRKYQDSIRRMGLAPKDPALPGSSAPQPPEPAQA
Sequence of Death domain-containing protein CRADD (Homo sapiens), P78560 R170H (P78560 whole entry R170H, the tested form may be a part): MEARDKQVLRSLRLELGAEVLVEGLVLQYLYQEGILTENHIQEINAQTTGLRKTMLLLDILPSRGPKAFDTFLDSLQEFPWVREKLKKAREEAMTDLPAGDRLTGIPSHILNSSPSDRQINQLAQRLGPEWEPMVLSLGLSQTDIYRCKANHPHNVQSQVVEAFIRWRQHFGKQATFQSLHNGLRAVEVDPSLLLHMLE
Sequence of Death domain-containing protein CRADD (Homo sapiens), P78560 R170C (P78560 whole entry R170C, the tested form may be a part): as the sequence (P78560 whole entry R170H, the tested form may be a part) above, with H170C counted along it
Sequence of Death domain-containing protein CRADD (Homo sapiens), P78560 G128R (P78560 whole entry G128R, the tested form may be a part): as the sequence (P78560 whole entry R170H, the tested form may be a part) above, with G128R, H170R counted along it
Sequence of Death domain-containing protein CRADD (Homo sapiens), P78560 F164C (P78560 whole entry F164C, the tested form may be a part): as the sequence (P78560 whole entry R170H, the tested form may be a part) above, with F164C, H170R counted along it

Row | Substance | effect of a mutation on the interaction [1] | effect of a mutation on the interaction [2]
1 | Death domain-containing protein CRADD (Homo sapiens), P78560 G128R | disrupting interaction strength | decreasing interaction strength
2 | Death domain-containing protein CRADD (Homo sapiens), P78560 R170H | decreasing interaction strength | decreasing interaction strength
3 | Death domain-containing protein CRADD (Homo sapiens), P78560 F164C | with no effect | with no effect
4 | Death domain-containing protein CRADD (Homo sapiens), P78560 R170C | decreasing interaction strength | decreasing interaction strength
